Measured values from paper PMC2396507, “Analysis of the DNA Binding Activity of BRCA1 and Its Modulation by the Tumour Suppressor p53”.

Experiments:
BRCA1 230-534 [1] = biological target: T1, BRCA1 230-534 (UniProt P38398 230-534); test: competition EMSA; 0.5 uM labelled linear duplex, 5 uM P1; 50 mM NaCl, 10 mM Tris-HCl pH 8.0, 0.5 mM EDTA, 1 mM DTT, 5% glycerol; 6% native PAGE in TAE at 4 C; incubation temperature not stated; settings: protein: recombinant, tags: none stated (expressed from pET22b), label: 5'-32P when used as probe
p53 (GST fusion) [2] = biological target: T2, p53 (GST fusion) (UniProt P04637 1-393); test: EMSA; 100-500 nM GST-p53, no BRCA1; 50 mM NaCl, 10 mM Tris-HCl pH 8.0, 0.5 mM EDTA, 1 mM DTT, 5% glycerol; 6% native PAGE in TAE at 4 C; incubation temperature not stated; settings: protein: recombinant, tags: N-terminal GST, uncleaved (pGEX2TKp53), chain copies: 4, label: 5'-32P when used as probe
BRCA1 230-534 [3] = biological target: T1, BRCA1 230-534; test: EMSA; 1-5 uM P1, 0.5 uM DNA; 50 mM NaCl, 10 mM Tris-HCl pH 8.0, 0.5 mM EDTA, 1 mM DTT, 5% glycerol; 6% native PAGE in TAE at 4 C; incubation temperature not stated; settings: protein: recombinant; tags: none stated (expressed from pET22b); label: 5'-32P when used as probe; duplex
p53 (GST fusion) [4] = biological target: T2, p53 (GST fusion); test: EMSA; 100-500 nM GST-p53, no BRCA1; no binding at 200 nM (lane 8); 50 mM NaCl, 10 mM Tris-HCl pH 8.0, 0.5 mM EDTA, 1 mM DTT, 5% glycerol; 6% native PAGE in TAE at 4 C; incubation temperature not stated; settings: protein: recombinant; tags: N-terminal GST, uncleaved (pGEX2TKp53); chain copies: 4; label: 5'-32P when used as probe; four-way junction
[5] = duplex with C:C mismatches (design after triple lesions)

T2 sequence (P04637 whole entry, the tested form may be a part): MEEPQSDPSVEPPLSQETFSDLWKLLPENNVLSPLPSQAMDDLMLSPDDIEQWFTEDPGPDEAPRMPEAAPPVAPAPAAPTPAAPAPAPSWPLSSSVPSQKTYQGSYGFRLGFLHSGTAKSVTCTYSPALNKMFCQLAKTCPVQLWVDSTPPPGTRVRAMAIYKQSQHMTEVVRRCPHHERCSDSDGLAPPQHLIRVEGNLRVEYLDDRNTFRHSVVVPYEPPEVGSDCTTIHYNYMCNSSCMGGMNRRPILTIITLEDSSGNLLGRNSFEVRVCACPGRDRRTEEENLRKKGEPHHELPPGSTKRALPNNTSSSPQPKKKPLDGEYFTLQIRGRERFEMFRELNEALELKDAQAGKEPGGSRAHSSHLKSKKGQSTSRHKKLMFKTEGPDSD
T1 sequence (P38398 230-534): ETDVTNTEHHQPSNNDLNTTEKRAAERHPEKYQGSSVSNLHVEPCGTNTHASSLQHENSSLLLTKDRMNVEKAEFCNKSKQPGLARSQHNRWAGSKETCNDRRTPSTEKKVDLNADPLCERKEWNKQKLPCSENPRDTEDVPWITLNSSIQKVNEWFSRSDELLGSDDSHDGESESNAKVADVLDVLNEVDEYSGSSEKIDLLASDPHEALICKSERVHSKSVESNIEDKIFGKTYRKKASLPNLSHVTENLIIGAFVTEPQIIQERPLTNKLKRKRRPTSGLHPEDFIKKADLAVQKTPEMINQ

B1: C:C mismatch DNA (dsDNA)
DNA 1: CCCTCGGAGCACTGCACAACCCCTGGCCGCCG
DNA 2: CGGCGGCCAGCGGTTCTGCACTGCTCCGAGGG
binding signal (BRCA1 230-534 [1]; [5]): 70 % reduction of P1 bound to labelled linear duplex at equimolar competitor | binding result (p53 (GST fusion) [2]; [5]): no binding

B2: linear duplex DNA (dsDNA)
DNA 1: CCCTCGGAGCACTGCACAACCCCTGGCCGCCG
DNA 2: CGGCGGCCAGGGGTTGTGCAGTGCTCCGAGGG
binding result (BRCA1 230-534 [3]): binds

B3: four-way junction DNA (structured_DNA)
DNA 1: AGATCTGGCGTTAGGTGATACCGATGCATC
DNA 2: CATGCATCGGTATCAGGCTTACGACTAGTG
DNA 3: CACTAGTCGTAAGCCACTCGTGCTGAATTC
DNA 4: GAATTCAGCACGAGTCCTAACGCCAGATCT
binding signal (BRCA1 230-534 [1]; four-way junction): 91 % reduction of P1 bound to labelled linear duplex at equimolar competitor | binding result (p53 (GST fusion) [4]): binds

B4: bulge containing DNA (dsDNA)
DNA 1: CACGCTAAGTCCGATGCGTGAGATCCGC
DNA 2: GCGGATCTCACGCGTATCGGACTTAGCGTG
binding signal (BRCA1 230-534 [1]; duplex with bulge): 65 % reduction of P1 bound to labelled linear duplex at equimolar competitor | binding result (p53 (GST fusion) [2]; duplex with bulge): no binding
